Results on four molecules are retold here after article PMC3294029 (2013).

Holding throughout (assay): fluorescence anisotropy
In general terms: In fluorescence polarisation assays a small probe gives low polarisation when free and higher when bound to something large.

For assay [1], the target named is T1, N-CoR RID2 peptide (Homo sapiens).
T1 chain: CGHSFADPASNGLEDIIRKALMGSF

Assay [2] addresses T2, ACTR NR box 3 peptide (Homo sapiens, 521 nM ATRA, Rhodamine Red-labelled peptide).
T2 chain: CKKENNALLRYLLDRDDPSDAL

For assay [3], the target named is T3, N-CoR RID2 peptide (Homo sapiens, Rhodamine Red-labelled peptide).
T3 chain: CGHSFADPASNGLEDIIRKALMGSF

Assay [4] has as its target T4, N-CoR RID2 peptide (Homo sapiens, 209 nM ATRA, Rhodamine Red-labelled peptide).
T4 chain: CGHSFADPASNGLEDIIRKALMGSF

Assay [5] deals with T5, ACTR NR box 3 peptide (Homo sapiens, Rhodamine Red-labelled peptide).
T5 chain: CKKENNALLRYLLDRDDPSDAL

Residue numbers refer to the chain shown, from its start.

B1: RARα LBD (protein)
chain: ESYTLTPEVGELIEKVRKAHQETFPALCQLGKYTTNNSSEQRVSLDIDLWDKFSELSTKCIIKTVEFAKQLPGFTTLTIADQITLLKAACLDILILRICTRYTPEQDTMTFSDGLTLNRTQMHNAGFGPLTDLVFAFANQLLPLEMDDAETGLLSAICLICGDRQDLEQPDRVDMLQEPLLEALKVYVRKRRPSRPHMFPKMLMKITDLRSISAKGAERVITPKMEIPGSMPPLIQEMLENSEGLD
As for B1, the affinity with N-CoR RID2 peptide [1], expressed as Kd, was 12.2 µM.

B2: RARα LBD (protein)
chain: B1 chain with P223L, M238T
Regarding B2, in the assay with N-CoR RID2 peptide [1], binding was put at a Kd of 10.9 µM.

B3: RARα LBD (protein)
chain: B1 chain with P223L
For the molecule B3, the Kd (commonly a measure of binding affinity in units of concentration) was found to be 55 µM in the assay with ACTR NR box 3 peptide [2], 18.9 µM with N-CoR RID2 peptide [3], 74.2 µM in the assay with N-CoR RID2 peptide [4] and 155 µM with ACTR NR box 3 peptide [5].

B4: RARα LBD (protein)
chain: B1 chain with M122L, P223L
Turning to B4, the Kd with N-CoR RID2 peptide [1] came to 18.6 µM.
